The values below are quoted from earlier work in paper PMC3898597.

What all share (assay): SPR
Background: Surface plasmon resonance follows binding to a sensor surface in real time, without labels.

Series [1] has as its target transducin heterotrimer (Gt) (Bos taurus) (UniProt P04695).
The target of series [2] is Gβ1γ1 (Bos taurus) (UniProt P62871).
For series [3], the target named is Gαt (Bos taurus) (UniProt P04695).
Chain of Gαt (Bos taurus) (P04695 2-350): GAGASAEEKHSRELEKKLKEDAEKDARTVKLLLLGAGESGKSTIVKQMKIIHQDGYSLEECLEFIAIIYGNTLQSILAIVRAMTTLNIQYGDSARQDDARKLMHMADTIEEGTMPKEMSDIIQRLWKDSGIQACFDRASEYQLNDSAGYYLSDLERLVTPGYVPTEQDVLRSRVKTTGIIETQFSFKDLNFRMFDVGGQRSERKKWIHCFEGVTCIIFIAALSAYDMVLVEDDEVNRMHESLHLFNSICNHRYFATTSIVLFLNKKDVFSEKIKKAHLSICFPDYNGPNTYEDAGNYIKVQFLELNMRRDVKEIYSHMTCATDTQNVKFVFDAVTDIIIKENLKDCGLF

Chain of rhodopsin (P02699 whole entry): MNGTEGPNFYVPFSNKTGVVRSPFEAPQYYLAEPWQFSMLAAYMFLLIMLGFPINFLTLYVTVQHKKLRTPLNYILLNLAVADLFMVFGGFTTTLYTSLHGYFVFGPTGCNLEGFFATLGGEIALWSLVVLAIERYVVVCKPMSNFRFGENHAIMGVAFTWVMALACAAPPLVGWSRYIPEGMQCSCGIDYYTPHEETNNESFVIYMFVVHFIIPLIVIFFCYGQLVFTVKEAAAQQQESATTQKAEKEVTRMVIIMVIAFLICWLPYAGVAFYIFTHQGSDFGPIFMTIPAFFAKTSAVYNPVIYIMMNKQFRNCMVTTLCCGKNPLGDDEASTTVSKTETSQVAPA
Chain of transducin heterotrimer (Gt) (Bos taurus) (P04695 2-350, chain 1 of 3): as the sequence (P04695 2-350) above
Chain of transducin heterotrimer (Gt) (Bos taurus) (P62873 2-340, chain 2 of 3, further chain): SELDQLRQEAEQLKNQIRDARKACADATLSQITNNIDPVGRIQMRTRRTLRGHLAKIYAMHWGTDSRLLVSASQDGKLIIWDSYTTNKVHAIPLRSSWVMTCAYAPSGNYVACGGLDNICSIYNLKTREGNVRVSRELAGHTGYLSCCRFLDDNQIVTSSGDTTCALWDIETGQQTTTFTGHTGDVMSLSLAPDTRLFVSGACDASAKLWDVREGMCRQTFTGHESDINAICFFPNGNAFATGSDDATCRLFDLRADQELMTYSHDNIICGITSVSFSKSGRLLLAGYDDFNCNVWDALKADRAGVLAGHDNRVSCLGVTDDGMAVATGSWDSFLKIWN
Chain of transducin heterotrimer (Gt) (Bos taurus) (P02698 2-71, chain 3 of 3, further chain): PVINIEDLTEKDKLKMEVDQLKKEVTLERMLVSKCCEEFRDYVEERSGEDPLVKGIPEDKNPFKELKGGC
Chain of rhodopsin (recombinant) (P02699 whole entry): as the sequence (P02699 whole entry) above

By Kd is commonly meant the equilibrium constant for the complex coming apart. Take “rhodopsin (recombinant) (from UniProt P02699)”: the Kd in series [1] is 9.1 nM.

As to rhodopsin (from UniProt P02699), the equilibrium dissociation constant (Kd) in series [2] was 300 nM; in series [1], 13.6 nM; in series [3], 300 nM.
